Our source for the residual binding activity with simvastatin (percent of the non-inhibited signal) and Kd values is PMC11853025.

The term Kd denotes the equilibrium constant for the complex coming apart.

The target in experiment [1] is iC3b (UniProt P01024). Put plainly: SPR; competitive: αI domains at 5 µM preincubated with simvastatin (3-100 µM), injected over immobilised iC3b or ICAM-1; HBST with 1 mM MgCl2 and 5% DMSO; signal as percent of the non-inhibited signal. In general terms: In SPR one partner is held on a chip, and binding of the other changes the refractive index at the surface.
Experiment [2] has as its target iC3b (UniProt P01024). Kind of experiment: SPR; C3b deposited on a CM5 chip (amine-coupled seed, then convertase-mediated deposition to about 5000 RU), iC3b and C3dg made from it on the chip; αI domains injected as dilution series, 120 s; Biacore T200, 25 °C; HBST (10 mM HEPES, 150 mM NaCl, 0.005% Tween-20, pH 7.4) with 1 mM MgCl2; Langmuir 1:1 fit, KD calculated.
Experiment [3] has as its target ICAM-1 (recombinant, Sino Biological 10346-H03H) (UniProt P05362). Kind of experiment: SPR; competitive: αI domains at 5 µM preincubated with simvastatin (3-100 µM), injected over immobilised iC3b or ICAM-1; HBST with 1 mM MgCl2 and 5% DMSO; signal as percent of the non-inhibited signal.

ICAM-1 (recombinant, Sino Biological 10346-H03H), sequence (P05362 28-480): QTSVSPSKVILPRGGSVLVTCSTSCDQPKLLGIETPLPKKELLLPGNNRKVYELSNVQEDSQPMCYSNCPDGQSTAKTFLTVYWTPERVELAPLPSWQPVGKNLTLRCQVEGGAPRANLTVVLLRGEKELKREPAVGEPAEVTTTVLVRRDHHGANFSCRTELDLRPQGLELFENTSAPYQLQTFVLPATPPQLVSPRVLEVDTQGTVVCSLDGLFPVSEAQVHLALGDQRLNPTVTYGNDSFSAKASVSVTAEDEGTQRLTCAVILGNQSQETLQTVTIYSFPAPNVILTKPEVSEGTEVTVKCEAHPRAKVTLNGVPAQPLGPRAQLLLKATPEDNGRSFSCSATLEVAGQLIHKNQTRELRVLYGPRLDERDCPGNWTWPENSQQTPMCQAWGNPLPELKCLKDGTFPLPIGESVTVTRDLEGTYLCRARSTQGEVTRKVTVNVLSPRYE

In turn, “CR3 αMI domain, high-affinity (HA) variant p.I332G (from UniProt P11215 146-334) (domain or fragment)” had a residual binding activity with simvastatin (percent of the non-inhibited signal) in the experiment with iC3b [1] of 77%. Moreover, the Kd in the experiment with iC3b [2] is 1.8 µM.
With “CR3 αMI domain, wild type (WT) (from UniProt P11215 146-334) (domain or fragment)”, the Kd with iC3b [2] is 15 µM.
For “LFA-1 αLI domain, high-affinity (HA) variant p.K312C/K319C (domain or fragment)”, in experiment [3], the residual binding activity with simvastatin (percent of the non-inhibited signal) was determined as 83%.
